Target: SlGrx9-nLUC
Test: luciferase complementation assay (LCA) in N. benthamiana leaves, quantified with ImageJ
Conditions: parent: est. 6.1; read off a plot

Row | Substance | response
1 | cLUC-SlTrxh (from UniProt Q9LKW0) C54S | 6
2 | cLUC-SlTrxh (from UniProt Q9LKW0) C54W | 15
